Test results reported in article PMC7486707 (Proceedings of the National Academy of Sciences of the …, 2020).

Biological target: T1, STM-His6 (SHOOT …) (Arabidopsis thaliana, UniProt Q38874 1-382)
T1 sequence (looked up): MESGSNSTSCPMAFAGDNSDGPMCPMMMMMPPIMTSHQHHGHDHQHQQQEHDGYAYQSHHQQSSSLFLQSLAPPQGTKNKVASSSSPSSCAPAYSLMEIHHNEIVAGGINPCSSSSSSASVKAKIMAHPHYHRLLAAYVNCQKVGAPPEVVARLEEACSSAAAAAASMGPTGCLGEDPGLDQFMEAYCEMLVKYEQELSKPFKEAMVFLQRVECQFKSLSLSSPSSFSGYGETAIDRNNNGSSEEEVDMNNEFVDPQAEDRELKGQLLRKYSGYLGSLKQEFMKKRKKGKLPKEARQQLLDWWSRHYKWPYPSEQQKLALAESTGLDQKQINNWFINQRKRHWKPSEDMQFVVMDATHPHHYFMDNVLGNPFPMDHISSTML
Assay: pull-down

B1: GST-WUS (WUSCHEL) (natural protein, Arabidopsis thaliana, UniProt Q9SB92 1-292, looked up)
chain: MEPPQHQHHHHQADQESGNNNNNKSGSGGYTCRQTSTRWTPTTEQIKILKELYYNNAIRSPTADQIQKITARLRQFGKIEGKNVFYWFQNHKARERQKKRFNGTNMTTPSSSPNSVMMAANDHYHPLLHHHHGVPMQRPANSVNVKLNQDHHLYHHNKPYPSFNNGNLNHASSGTECGVVNASNGYMSSHVYGSMEQDCSMNYNNVGGGWANMDHHYSSAPYNFFDRAKPLFGLEGHQEEEECGGDAYLEHRRTLPLFPMHGEDHINGGSGAIWKYGQSEVRPCASLELRLN
Does B1 bind?
Result: binds
